Test results from US20210301005A1 (Genentech, published 2021).
Numbering of substitutions follows the chain as printed. Read-outs that look alike come from different tables or passages of the source.

Experiments:
[1] = target: T1, human TGFβ2, mature receptor-binding domain (human, UniProt P09858 303-414 (pig entry), The mature TGFβ2 is a disulfide-linked homodimer of this 112-residue chain. The 4A11 epitope spans both monomers (p-1207).); experiment: BIAcore T200
T1 construct: Peprotech; also called TGFb2
T1 sequence: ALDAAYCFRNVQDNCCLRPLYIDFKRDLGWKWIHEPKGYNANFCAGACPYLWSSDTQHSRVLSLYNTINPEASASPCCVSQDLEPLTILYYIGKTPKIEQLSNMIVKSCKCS
Summary of the method: (§1)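 Humanized antibodies captured on protein A CM5 chip (~100 RU), then 3-fold serial dilutions of TGFβ (0.02–5 nM) injected in HBS-EP pH 7.4 at 25° C., 50 μl/min. kon and koff from 1:1 Langmuir fit; KD = koff/kon.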

[2] = target: T2, human TGFβ1, mature receptor-binding domain (human, UniProt P01137 279-390); experiment: BIAcore T200
T2 construct: Peprotech; also called TGFb1
T2 sequence (P01137 279-390 limits assumed): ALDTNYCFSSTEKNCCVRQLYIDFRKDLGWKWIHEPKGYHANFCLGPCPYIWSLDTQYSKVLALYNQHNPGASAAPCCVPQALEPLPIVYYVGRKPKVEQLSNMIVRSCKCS
Summary of the method: as §1

[3] = target: T3, human TGFβ3, mature dimeric form (human, UniProt P10600 301-412); experiment: BIAcore T200
T3 construct: Peprotech, expressed in E. coli; also called TGFb3
T3 sequence: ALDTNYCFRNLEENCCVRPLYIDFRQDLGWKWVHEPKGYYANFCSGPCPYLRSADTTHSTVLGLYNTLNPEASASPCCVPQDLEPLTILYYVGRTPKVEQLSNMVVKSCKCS
Summary of the method: as §1

[4] = target: T1, human TGFβ2, mature receptor-binding …; experiment: SPR
[5] = target: T3, human TGFβ3, mature dimeric form; experiment: SPR
[6] = target: T1, human TGFβ2, mature receptor-binding …; experiment: Biacore SPR
[7] = target: T4, mouse TGFβ2, mature peptide (mouse, UniProt P27090 303-414); experiment: Biacore SPR
T4 construct: mature
T4 sequence (looked up): T1 sequence with S59T, R60K, K94N

[8] = target: T3, human TGFβ3, mature dimeric form; experiment: BIAcore T200; remark: listed apart in the source
Method: For binding affinity determinations of all humanized 2A10 antibodies, Surface Plasmon Resonance (SPR) measurement with a BIAcore™-T200 instrument was used. Briefly, series S CM5 biosensor chip with protein A was first applied to capture each humanized 2A10 variant to achieve approximately 100 response units (RU) on each flow cell, following by injection of 3-fold serial dilutions of human TGFβ1, TGFβ2 or TGFβ3 (0.02 nM to 5 nM) in HBS-EP buffer (0.01M HEPES pH 7.4, 0.15M NaCl, 3 mM EDTA and 0.05% v/v surfactant P20) at 25° C. with a flow rate of 50 μl/min for kinetics measurement. Association rates (ko.) and dissociation rates (koff) were calculated using a simple one-to-one Langmuir binding model (BIAcore T200 evaluation software version 2.0) to determine the equilibrium dissociation constant (KD), which was calculated as the ratio koff/kₒₙ.
Binding affinity determinations of all humanized 4A11 antibodies were performed using SPR measurement with a BIAcore™-T200 instrument, as described above in Example 6 ([…]).

[9] = target: T1, human TGFβ2, mature receptor-binding …; experiment: cell-based or functional assay
[10] = target: T2, human TGFβ1, mature receptor-binding …; experiment: cell-based or functional assay
[11] = target: T3, human TGFβ3, mature dimeric form; experiment: cell-based or functional assay
[12] = target: T1, human TGFβ2, mature receptor-binding …; experiment: SPR; remark: listed apart in the source
[13] = target: T3, human TGFβ3, mature dimeric form; experiment: SPR; remark: listed apart in the source
[14] = target: T1, human TGFβ2, mature receptor-binding …; experiment: cell-based or functional assay; remark: listed apart in the source
[15] = target: T2, human TGFβ1, mature receptor-binding …; experiment: cell-based or functional assay; remark: listed apart in the source
[16] = target: T3, human TGFβ3, mature dimeric form; experiment: cell-based or functional assay; remark: listed apart in the source
[17] = target: T1, human TGFβ2, mature receptor-binding …; experiment: cell-based or functional assay; remark: listed apart in the source
[18] = target: T2, human TGFβ1, mature receptor-binding …; experiment: cell-based or functional assay; remark: listed apart in the source
[19] = target: T3, human TGFβ3, mature dimeric form; experiment: cell-based or functional assay; remark: listed apart in the source
[20] = target: T1, human TGFβ2, mature receptor-binding …; experiment: BIAcore T200; remark: listed apart in the source
Summary of the method: as §1

[21] = target: T2, human TGFβ1, mature receptor-binding …; experiment: BIAcore T200; remark: listed apart in the source
Summary of the method: as §1

[22] = target: T3, human TGFβ3, mature dimeric form; experiment: BIAcore T200; remark: listed apart in the source
Summary of the method: as §1

- Kd [1]: 0.0016 nM
- Kd [2]: > 5 nM
- Kd [3]: ≤ 0.0012 nM
- Kd [4]: 0.008 nM
- Kd [5]: 0.005 nM
- Kd [6]: 0.008 nM
- Kd [7]: < 0.002 nM
- Kd [8]: ≤ 0.0012 nM
- HEKBlue TGFβ blocking IC50 [9]: 0.09 nM
- HEKBlue TGFβ blocking IC50 [10]: > 200 nM
- HEKBlue TGFβ blocking IC50 [11]: 0.06 nM
- Kd [12]: < 0.01 nM
- Kd [13]: < 0.01 nM
- HEKBlue TGFβ blocking IC50 [14]: 0.09 nM
- HEKBlue TGFβ blocking IC50 [15]: > 200 nM
- HEKBlue TGFβ blocking IC50 [16]: 0.06 nM
- Blocking IC50 [17]: 0.25 nM
- Blocking IC50 [18]: > 500 nM
- Blocking IC50 [19]: 0.03 nM
- Kd [20]: 0.0016 nM
- Kd [21]: > 5 nM
- Kd [22]: 0.0012 nM
B1: 4A11 (antibody, V domains shown)
VH: QSLEESGGRLVTPGTPLTLTCTVSGFSLSSYTVNWVRQAPGKGLEWIGYISYGGSAYYASWANGRFTISKTSATVDLKITSPTTEDTATYFCARHMQVGGAPTGSMAAFDPWGPGTLVTVSS
VL: AAVLTQTPSPVSAAVGGTVSISCQSSQSVYNNNYLSWFQQKPGQPPKLLIYGASTLTSGVPSRFKGSGSGTQFTLTISDVQCDDAATYYCAGGYSGSSDKYAFGGGTEVVVKG
notes: anti-TGFβ2/3, recombinant rabbit monoclonal; some paragraphs print the H/L pair as 32/33; also called Rb1.4A11; Rbt 4A11
